The source of these data is US20230331848A1 (BIOSION, published 2023).

B1: humanized antibody huE1A9C8A7-V1 (antibody, human IgG4 S228P, kappa, V domains shown)
VH: QVQLVQSGAEVVKPGASVKISCKASGYTFSDYVMHWMRQAPGQSLEWIGVISTYHIPAVYNQKFKGKATMTVDKSTSTVYLELSSLRSEDTAVYYCAREVYGDSYYFDVWGQGTTVTVSS
VL: DIVMTQTPLSLPVTPGEPASISCRSSQSIVHSNGNTYLEWYLQKPGQSPQLLIYKVSNRFSGVPDRFSGSGSGTDFTLKISRVEAEDVGVYYCFQGSHVPYTFGGGTKVEIKR
notes: Human IgG4/kappa
B2: humanized antibody huE1A9C8A7-V7 (antibody, human IgG4 S228P, kappa, V domains shown)
VH: QVQLVQSGAEVVKPGASVKISCKASGYTFTDYVMHWVRQAPGQGLEWIGVISTYHIPAVYNQKFKGKATMTVDTSTSTVYLELSSLRSEDTAVYYCAREVYGDSYYFDVWGQGTTVTVSS
VL: DIVMTQTPLSLPVTPGEPASISCRSSQSIVHSNGNTYLEWYLQKPGQSPQLLIYKVSNRFSGVPDRFSGSGSGTDFTLKISRVEAEDVGVYYCFQGSHVPYTFGGGTKVEIKR
notes: Human IgG4/kappa
B3: humanized antibody huE1A9C8A7-V6 (antibody, human IgG4 S228P, kappa)
heavy: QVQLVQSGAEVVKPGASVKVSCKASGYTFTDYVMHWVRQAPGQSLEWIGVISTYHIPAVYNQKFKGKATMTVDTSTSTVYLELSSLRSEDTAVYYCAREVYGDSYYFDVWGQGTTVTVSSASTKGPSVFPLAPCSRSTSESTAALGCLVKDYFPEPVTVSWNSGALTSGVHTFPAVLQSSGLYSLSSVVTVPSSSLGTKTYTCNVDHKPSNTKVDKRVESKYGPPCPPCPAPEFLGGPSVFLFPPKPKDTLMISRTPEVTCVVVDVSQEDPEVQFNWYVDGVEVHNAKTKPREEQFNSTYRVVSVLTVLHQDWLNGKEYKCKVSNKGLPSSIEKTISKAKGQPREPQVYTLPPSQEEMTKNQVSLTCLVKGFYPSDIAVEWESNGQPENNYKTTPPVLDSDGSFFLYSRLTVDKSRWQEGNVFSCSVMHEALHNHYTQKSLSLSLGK
light: DIVMTQTPLSLPVTPGEPASISCRSSQSIVHSNGNTYLEWYLQKPGQSPQLLIYKVSNRFSGVPDRFSGSGSGTDFTLKISRVEAEDVGVYYCFQGSHVPYTFGGGTKVEIKRTVAAPSVFIFPPSDEQLKSGTASVVCLLNNFYPREAKVQWKVDNALQSGNSQESVTEQDSKDSTYSLSSTLTLSKADYEKHKVYACEVTHQGLSSPVTKSFNRGEC
notes: Human IgG4/kappa
B4: humanized antibody huE1A9C8A7-V2 (antibody, human IgG4 S228P, kappa, V domains shown)
VH: QVQLVQSGAEVVKPGASVKISCKASGYTFTDYVMHWMRQAPGQSLEWIGVISTYHIPAVYNQKFKGKATMTVDKSTSTVYLELSSLRSEDTAVYYCAREVYGDSYYFDVWGQGTTVTVSS
VL: DIVMTQTPLSLPVTPGEPASISCRSSQSIVHSNGNTYLEWYLQKPGQSPQLLIYKVSNRFSGVPDRFSGSGSGTDFTLKISRVEAEDVGVYYCFQGSHVPYTFGGGTKVEIKR
notes: Human IgG4/kappa
B5: humanized antibody huE1A9C8A7-V10 (antibody, human IgG4 S228P, kappa, V domains shown)
VH: QVQLVQSGAEVVKPGASVKISCKASGYTFTDYVMHWVRQAPGQSLEWIGVISTYHIPAVYNQKFKGKVTMTVDTSTSTVYLELSSLRSEDTAVYYCAREVYGDSYYFDVWGQGTTVTVSS
VL: DIVMTQTPLSLPVTPGEPASISCRSSQSIVHSNGNTYLEWYLQKPGQSPQLLIYKVSNRFSGVPDRFSGSGSGTDFTLKISRVEAEDVGVYYCFQGSHVPYTFGGGTKVEIKR
notes: Human IgG4/kappa
B6: humanized antibody huE1A9C8A7-V9 (antibody, human IgG4 S228P, kappa, V domains shown)
VH: QVQLVQSGAEVVKPGASVKISCKASGYTFTDYVMHWVRQAPGQSLEWIGVISTYHIPAVYNQKFKGRATMTVDTSTSTVYLELSSLRSEDTAVYYCAREVYGDSYYFDVWGQGTTVTVSS
VL: DIVMTQTPLSLPVTPGEPASISCRSSQSIVHSNGNTYLEWYLQKPGQSPQLLIYKVSNRFSGVPDRFSGSGSGTDFTLKISRVEAEDVGVYYCFQGSHVPYTFGGGTKVEIKR
notes: Human IgG4/kappa
B7: humanized antibody huE1A9C8A7-V4 (antibody, human IgG4 S228P, kappa, V domains shown)
VH: QVQLVQSGAEVVKPGASVKISCKASGYTFSDYVMHWMRQAPGQSLEWIGVISTYHIPAVYNQKFKGKATMTVDTSTSTVYLELSSLRSEDTAVYYCAREVYGDSYYFDVWGQGTTVTVSS
VL: DIVMTQTPLSLPVTPGEPASISCRSSQSIVHSNGNTYLEWYLQKPGQSPQLLIYKVSNRFSGVPDRFSGSGSGTDFTLKISRVEAEDVGVYYCFQGSHVPYTFGGGTKVEIKR
notes: Human IgG4/kappa

The Kd is the equilibrium constant for the complex coming apart. The low end stands for higher affinity, the high end for lower affinity. As a reminder, the koff is the rate constant with which the complex falls apart. Broadly, the kon is a measure of how fast the partners come together.

T1 sequence (Q15116 25-167 limits assumed): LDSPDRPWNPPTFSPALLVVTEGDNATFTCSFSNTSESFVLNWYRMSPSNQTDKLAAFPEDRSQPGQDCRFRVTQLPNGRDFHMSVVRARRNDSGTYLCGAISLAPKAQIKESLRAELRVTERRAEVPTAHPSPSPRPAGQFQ

This experiment has as its target T1, human PD-1-his protein (Cat#:PD1-H5221, Acro biosystems Inc.) (human, UniProt Q15116 25-167).
T1 construct: not shown: his tag
Description: BLI (Octet RED96), supernatant antibody captured on AHC sensor, human PD-1-his in solution, 1:1 fit. On the procedure:
Briefly, AHC biosensors (anti-human IgG Fe capture, from ForteBio) were presoaked with 10 mM glycine (pH 1.5) for 3 seconds, and then dipped in a well with running buffer (0.5% w/v BSA in PBST) for 3 seconds, the soaking and dipping steps were repeated for three times. […] A new baseline was run for 100 seconds in another well with running buffer. Then the sensors were dipped in a well with serially diluted human PD-1-his protein (Cat#:PD1-H5221, Acro biosystems Inc., starting at 100 nM with a two-fold serial dilution) in running buffer for 120 seconds, and then immersed in a baseline well for […]. Finally, sensors were presoaked with 10 mM glycine (pH 1.5) for 30 seconds, and then were dipped in a well with running buffer for 30 seconds. The association and dissociation curves were fit to a 1:1 Langmuir binding model using ForteBio Data Analysis 8.1 evaluation software.
In turn, B1 registered a dissociation constant (Kd) of 1.54 nM, a koff of 0.000317 s⁻¹ and a kon of 206000 M⁻¹ s⁻¹.

Consider B2, for which the affinity, expressed as Kd, was 1.5 nM; the off-rate constant (koff) is 0.000356 s⁻¹; the kon turned out to be 237000 M⁻¹ s⁻¹.

Take B3: the Kd worked out at 1.84 nM, the off-rate constant (koff) was determined as 0.000428 s⁻¹ and the kon came out at 233000 M⁻¹ s⁻¹.

As to B4, the Kd was determined as 1.49 nM, the koff was determined as 0.000294 s⁻¹ and the on-rate (kon) came to 197000 M⁻¹ s⁻¹.

The molecule B5 returned a Kd of 1.59 nM, a koff of 0.000385 s⁻¹ and an association rate constant (kon) of 242000 M⁻¹ s⁻¹.

Molecule B6 showed a dissociation constant Kd of 1.63 nM, a koff of 0.000413 s⁻¹ and a kon of 253000 M⁻¹ s⁻¹.

Take B7: the Kd was determined as 1.49 nM, the dissociation rate constant (koff) turned out to be 0.00027 s⁻¹ and the kon came out at 182000 M⁻¹ s⁻¹.
